Assay [1] addresses endogenous TrkB of cultured rat hippocampal neurons (rat (endogenous in hippocampal neurons)) (UniProt Q63604). Briefly: non-reducing SDS-PAGE and Western blot; lysates of rat hippocampal neurons (vehicle or BDNF 1.0 nM) with SDS, without β-ME; blots with 80E3 and MM12.
For assay [2] the target is unchanged. Briefly: native gel or EMSA; native PAGE (no SDS, no β-ME) of lysates of rat hippocampal neurons treated with vehicle or BDNF (1.0 nM, 15 min); Western blot with anti-TrkB antibodies (80E3, MM12).

Chain of endogenous TrkB of cultured rat hippocampal neurons, Q63604 32-821 (receptor; other documents disagree on this pair) (Q63604 32-821): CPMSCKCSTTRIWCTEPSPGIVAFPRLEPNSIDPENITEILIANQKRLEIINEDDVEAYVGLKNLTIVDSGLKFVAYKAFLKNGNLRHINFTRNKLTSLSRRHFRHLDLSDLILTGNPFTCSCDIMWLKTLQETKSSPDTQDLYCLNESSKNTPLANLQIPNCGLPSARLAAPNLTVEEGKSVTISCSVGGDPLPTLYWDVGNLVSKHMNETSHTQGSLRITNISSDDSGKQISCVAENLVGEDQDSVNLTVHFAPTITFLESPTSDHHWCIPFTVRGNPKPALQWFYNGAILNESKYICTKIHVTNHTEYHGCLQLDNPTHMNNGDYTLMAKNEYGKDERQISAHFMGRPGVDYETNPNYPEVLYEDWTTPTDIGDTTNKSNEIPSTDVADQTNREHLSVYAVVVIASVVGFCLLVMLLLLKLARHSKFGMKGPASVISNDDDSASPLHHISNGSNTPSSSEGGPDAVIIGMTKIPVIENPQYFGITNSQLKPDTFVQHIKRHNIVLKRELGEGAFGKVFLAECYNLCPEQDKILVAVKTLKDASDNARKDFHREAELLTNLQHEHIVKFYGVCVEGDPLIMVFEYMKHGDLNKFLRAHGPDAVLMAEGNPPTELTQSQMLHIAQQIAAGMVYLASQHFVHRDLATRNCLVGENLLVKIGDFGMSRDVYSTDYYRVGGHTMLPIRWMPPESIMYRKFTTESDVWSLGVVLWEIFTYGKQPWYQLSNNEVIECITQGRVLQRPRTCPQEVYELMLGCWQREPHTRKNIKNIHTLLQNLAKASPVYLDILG

For the substance “endogenous TrkB of cultured rat hippocampal neurons, Q63604 32-821 (receptor; other documents disagree on this pair)”, the stoichiometry N in assay [1] and in assay [2] was 2 throughout.
